Reference: patent US20210188980A1 (SHANGHAI EPIMAB BIOTHERAPEUTICS, published 2021)

T1: human LAG-3 expressed on cells (human, UniProt P18627 23-525)
T1 sequence (looked up): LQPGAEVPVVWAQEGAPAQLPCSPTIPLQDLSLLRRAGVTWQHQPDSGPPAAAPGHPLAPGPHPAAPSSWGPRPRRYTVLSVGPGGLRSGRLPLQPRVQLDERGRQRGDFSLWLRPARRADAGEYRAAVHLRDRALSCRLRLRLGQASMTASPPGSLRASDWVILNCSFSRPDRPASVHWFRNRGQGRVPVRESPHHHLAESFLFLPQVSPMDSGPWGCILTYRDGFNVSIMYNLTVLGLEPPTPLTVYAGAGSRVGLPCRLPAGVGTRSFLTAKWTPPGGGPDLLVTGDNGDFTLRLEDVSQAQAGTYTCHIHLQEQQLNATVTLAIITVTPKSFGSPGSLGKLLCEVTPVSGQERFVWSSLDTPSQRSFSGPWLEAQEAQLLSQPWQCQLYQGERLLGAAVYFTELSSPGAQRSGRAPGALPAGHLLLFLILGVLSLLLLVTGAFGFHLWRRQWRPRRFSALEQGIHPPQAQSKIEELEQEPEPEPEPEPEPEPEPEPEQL

T2: recombinant human LAG-3-his protein (Novoprotein) (human, UniProt P18627 23-450)
T2 construct: Bought; also called huLAG-3; not shown: His tag
T2 sequence (looked up): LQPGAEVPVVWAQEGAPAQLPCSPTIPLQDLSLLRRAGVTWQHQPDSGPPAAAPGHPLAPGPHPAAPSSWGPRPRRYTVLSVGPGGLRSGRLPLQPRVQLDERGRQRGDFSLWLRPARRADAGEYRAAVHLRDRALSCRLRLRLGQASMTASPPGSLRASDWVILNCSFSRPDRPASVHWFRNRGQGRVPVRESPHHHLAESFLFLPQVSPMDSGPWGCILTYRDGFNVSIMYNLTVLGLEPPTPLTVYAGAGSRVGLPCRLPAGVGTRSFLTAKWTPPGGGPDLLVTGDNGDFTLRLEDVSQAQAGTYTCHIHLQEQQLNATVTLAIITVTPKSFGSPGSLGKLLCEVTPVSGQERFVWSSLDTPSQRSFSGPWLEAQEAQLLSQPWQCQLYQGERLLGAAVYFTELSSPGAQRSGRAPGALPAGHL


Experiments:
[1] = target: T1, human LAG-3 expressed on cells; assay: cell-based or functional assay
[2] = target: T3, human LAG-3 ECD/Fc fusion protein (human); assay: ELISA, coated huLAG-3 ECD/Fc
T3 construct: also called HuLAG-3 ECD/Fc
Procedure: The supernatants of hybridoma clones were primarily screened by ELISA. Briefly, 50 μl/well of […] human LAG-3 ECD/Fc in NaHCO₃ were directly coated in each well of 96-well plate overnight. Plates were washed 3 times with 1×PBST, 300 μl per well. After blocking with 1% BSA in PBST at 250 μl per well and incubating at room temperature for 1 hour, the hybridoma supernatants were added at 50 μl per well and incubated at 37° C. for 1 hour. After washing, an HRP-linked goat anti-mouse IgG Fc secondary antibody (Cat. No. A0168, Sigma) was added at 100 μl/well and the plates were incubated at room temperature for 1 hour. TMB reagent (InnoReagents) was used to detect and develop the ELISA signal at 100 μl/well for 15 minutes, the reaction was stopped with 1 Normal HCL. The plates were read with a plate reader (SpectraMax® M5e, Molecular Devices, USA) at a wavelength of 450 nm. The ELISA-positive antibody producer clones were further verified by FACS analysis using methods similar to Example 1.4, above, except that stable HEK 293F cell lines expressing either human LAG-3 or cynomolgus LAG-3 were used. Hybridomas producing LAG-3 binding activity were selected and further characterized in a receptor blocking assay (RBA).
A binding ELISA was performed in the same way as described in Example 7.2 above. Each purified antibody was 10-fold serially diluted. After blocking of a 96-well assay plate with wells containing immobilized LAG-3 ECD/Fc fusion protein targets, the purified antibody samples with diluted concentrations were added to wells of the assay plate. The HRP-linked anti-mouse IgG antibody (A0168, Sigma) and TMB reagent were used to detect and develop the ELISA signal, which were read on a SpectraMax M5e plate reader at wavelength of 450 nm. Curves were fitted using GraphPad software, and EC50 values were calculated. Similarly, a RBA was also performed as described in Example 7.3 with titrated, purified antibodies, and maximum inhibition percentages and IC50 values were determined.

[3] = target: T1, human LAG-3 expressed on cells; assay: FACS, HEK 293F huLAG-3 cells
Procedure: (§1) FAGS analysis was performed using methods similar to Example 1.4, above, except that stable HEK 293F cell lines expressing either human LAG-3 cynomolgus LAG-3 were used. LAG-3 expressing cells were charged at 2×10⁴ cell per well into 96-well assay round-bottomed assay plates (Cat. No. 3799; Corning) and stained with purified anti-LAG-3 antibodies. LAG-3 antibodies were detected with AlexaFluor® Donkey anti-Mouse Ig (H+L) Highly Cross-Adsorbed Secondary Antibody (Cat. No. A21202; Invitrogen), and cell fluorescence was monitored using a flow cytometer. The data were processed by GraphPad software, and EC50 values were calculated.

[4] = target: T4, cynomolgus LAG-3 expressed on HEK 293F cells (cynomolgus); assay: FACS, HEK 293F cynoLAG-3 cells
T4 construct: whole, on cells
Procedure: as §1

[5] = target: LAG-3 antigen (Biacore analyte of Example 7.7); assay: SPR Biacore T200, mAb captured, LAG-3 antigen analyte
Procedure: For antibodies with high binding affinity in ELISA and FACS assays, as well as potent functional activity, binding affinities were determined based on measurement of binding kinetic constants in real time binding reactions using Biacore surface plasmon resonance. Briefly, the binding assay of antibody to antigen was performed using a Biacore T200 system through an antibody capture approach. Anti-mouse IgG Fc antibody was immobilized on a CM5 sensor chip according to the manufacturer's instructions. The test anti-LAG-3 murine monoclonal antibody was injected and captured by the immobilized anti-mouse IgG Fc. Then serial concentrations of LAG-3 antigen were individually injected, and the binding profile was recorded for each concentration of antigen analyte. The assay temperature was 25° C., and the association and dissociation times were 180 and 1200 seconds, respectively. The Biacore data were fitted using Biacore T200 evaluation software 1.0 according to a 1:1 binding model to calculate the association (kₒₙ) and dissociation (koff) rate constants and from these calculations the equilibrium dissociation constant (KD) was determined.

[6] = target: T3, human LAG-3 ECD/Fc fusion protein; assay: FACS RBA, huLAG-3 ECD/Fc on Raji; competitor MHC Class II
Procedure: Supernatants displaying LAG-3 specific activity were tested for the ability to block LAG-3 receptor binding to MHC Class II. Raji human B cell lymphoblasts express high levels of MCH Class II and were used as binding targets for LAG-3 ECD/Fc proteins described above. Briefly, Raji cells were harvested and resuspend in FACS buffer and plated in 96-well plates (2×10⁵ cells/well). Anti-LAG-3 hybridoma supernatants were mixed with soluble LAG-3 ECD/Fc and the mixture was added to wells at a final volume of 100 μl/well. After adding the mixture to cells, the plates were incubated at room temperature for 30 minutes. After washing twice with PBS, the cells were incubated with anti-human IgG Alexa Fluor® 488 secondary antibody at 4° C. for 1 hour, washed twice with PBS, then fluorescence was measured on a flow cytometer.
Purified anti-LAG-3 antibodies also were tested in a RBA in the same manner as described in Example 7.3. Antibodies were also tested in an antigen-specific T cell activation assay, as follows: A huLAG-3 expressing murine T hybridoma cell line was generated to order by ChemPartner (Shanghai, CN). Mouse splenocytes from the same strain of mice were used as effector cells. The hybridoma expressing the huLAG-3 receptor protein is capable of binding to MHC Class II-positive mouse splenocytes, with inhibitory effect via engagement of Class II. The assay tests for anti-LAG-3 antibody-mediated reversal of the inhibitory effect, as measured by increased production of IL-2. Mouse spleenocytes were harvested from 6-8 week-old female C57BL/6 mice, red blood cells were lysed using Red Blood Cell Lysis Buffer (Sigma-Aldrich; R7757) according to the maker's instructions. Next, 50 μl T hybridoma-huLAG-3 cells (2×10⁶ cells/ml) were seeded in each well of a 96-well culture plate, and then a series of anti-LAG-3 monoclonal antibodies in solution at 50 μl/well were added and incubated at 37° C. for 30 min. Mouse splenocytes (4×10⁶ cells/ml) and the antigen (20 μg/ml) were mixed and incubated at 37° C. for 30 min. The mixture (100 μl/well) was added into each well that was already seeded with T hybridoma-huLAG-3 cells and anti-LAG-3 mAbs. The mixture of antibodies, T hybridoma-huLAG-3 cells, mouse splenocytes, and the antigen was cultured for 3 days.

[7] = target: T2, recombinant human LAG-3-his protein …; assay: BLI Octet, Ab on AHC sensor, huLAG-3-his; test group 4
Procedure: All 18 humanized antibodies (Table 34) and a chimeric antibody having the parental murine VH and VL domains (mAb747c) were ranked by dissociation rate constant (koff). Briefly, antibodies were characterized for affinities and binding kinetics by Octet®RED96 biolayer interferometry (Pall ForteBio LLC). Antibodies were captured by Anti-hIgG Fc Capture (AHC) Biosensors (Pall) at a concentration of 100 nM for 30 seconds. Sensors were then dipped into running buffer (1× pH7.2 PBS, 0.05% Tween 20, 0.1% BSA) for 60 seconds to check baseline. Binding was measured by dipping sensors into a single concentration of recombinant human LAG-3-his protein (Novoprotein). Dissociation was followed by dipping sensors into running buffer for 1200 seconds. The association and dissociation curves were fitted to a 1:1 Langmuir binding model using FortéBio Data Analysis software (Pall). In each test group, the off-rates of antibodies were able to be compared with that of mAb747c. The off-rate ratios were calculated by the off-rate of antibody to that of mAb747c of its group and were compared all together. The lower the ratio was, the higher was the affinity of the antibody.

Row | Max IL-2 [1] [pg/mL] | EC50 [2] [nM] | EC50 [3] [nM] | Max-MFI [3] [MFI] | EC50 [4] [nM] | Max-MFI [4] [MFI] | Kd [5] [nM] | IC50 [6] [nM] | Max. Inhib. (%) [6] [%] | Antigen-dependent Activation, Mouse IL-2, EC50 [1] [nM] | koff [7] [s⁻¹] | off-rate ratio to that of mAb747c [7] [%] | Binder
1 | 513 | 0.55 | 3.3 | 124 | 14.3 | 67.4 | 189 | 4.73 | 93.9 | – | – | – | mAb749 (antibody, V domains shown, murine hybridoma anti-LAG-3 mAb) VH: EVQLQQSGAELVRPGASVKVSCTASDFNIKDDYVHWVKQRPEQGLEWIGWIDPENGDTEYASKFQGKATITADTSSNTAYLQLSSLTSEDTAVYFCSTWDAEENYWGQGTTLSVSS VL: DIVLTQAAPSVPVTPGESVSISCRSSKSLLHSNGNTYLYWFLQRPGQSPQVLIYRMSNLASGVPVRFSGSGSGTAFTLRISRVEAEDVGVYYCMQHLEYPFTFGSGTKLEIK
2 | – | – | – | – | – | – | – | – | – | – | 0.00081 | 153 | HumAb747-60 (antibody, human IgG1, V domains shown, humanized mAb747; human IgG1/kappa constant domains) VH: EVQLVQSGAEVKKPGATVKLSCTASDFNIKDDYMHWVKQRPEQGLDWIGWIVPENGNTEYASKFQGKATITADTSTNTAYLELSSLRSEDTAVYYCTVYGDYWGQGTTVTVSS VL: DIQMTQSPSSLSASVGDRVTITCRASQEISGYLSWLQQKPGGAIKRLIYAASTLDSGVPSRFSGSRSGSDYTLTISSLQPEDFADYYCLQYASYPLTFGQGTKLELK

The next lines start with the binder.

Row | Binder | Max IL-2 [1] [pg/mL] | EC50 [2] [nM] | EC50 [3] [nM] | Max-MFI [3] [MFI] | EC50 [4] [nM] | Max-MFI [4] [MFI] | Kd [5] [nM] | IC50 [6] [nM] | Max. Inhib. (%) [6] [%] | Antigen-dependent Activation, Mouse IL-2, EC50 [1] [nM] | koff [7] [s⁻¹] | off-rate ratio to that of mAb747c [7] [%]
3 | mAb750 (antibody, V domains shown, murine hybridoma anti-LAG-3 mAb) VH: EVQLQQSGAELVRPGASVKLSCTPSGLNIKDDYIHWVKQRPEQGLEWIGWIDPENGDTEYASKFQGKATITADTSSNTAYLQLSSLTSEDSAVYYCCTADYRNWYWGQGTTLTVSS VL: not shown | 552 | 0.25 | 24.1 | 88.7 | 114 | 36.7 | 75.1 | 7.15 | 96.6 | – | – | –
4 | mAb746 (antibody, V domains shown, murine hybridoma anti-LAG-3 mAb; also called rnAb746; 3502-mAb746) VH: EVQLQQSGAELVRPGASVKLSCTASDFNIKDDYMHWVKQRPEQGLDWIGWIVPENGNTEYASKFQGKATITADTSSNTAYLQLSSLTSEDTAVYYCTVYGDYWGQGTTLTVSS VL: DIQMTQSPSSLSASLGERVSLNCRASQEISGYLSWLQQKSDGTIKRLIYAASTLDSGVPKRFSGSRSGSDYSLTISSLESEDFADYYCLQYASYPLTFGAGTKLELK | 654 | 0.31 | 13 | 121 | 4.1 | 66.2 | 37.7 | 2.92 | 96.2 | 1.28 | – | –
5 | mAb747 (antibody, V domains shown, murine hybridoma anti-LAG-3 mAb; also called 3502-mAb747) VH: EVQLQQSGAELVRPGASVKLSCTASDFNIKDDYMHWVKQRPEQGLDWIGWIVPENGNTEYASKFQGKATITADTSSNTAYLQLSSLTSEDTAVYYCTVYGDYWGQGTTLTVSS VL: DIQMTQSPSSLSASLGERVSLNCRASQEISGYLSWLQQKPDGTIKRLIYAASTLDSGVPKRFSGSRSGSDYSLTISSLESEDFAAYYCLQYASYPLTFGAGTKLELK | 729 | 0.25 | 1.1 | 104 | 3.1 | 65.2 | 52 | 2.84 | 96.3 | 1.27 | – | –
